Results as given in PMC10954734, “Structure of antiviral drug bulevirtide bound to hepatitis B and D virus receptor protein NTCP” (Nature Communications, 2024).

Target: human Na+-taurocholate co-transporting polypeptide (NTCP), detergent-solubilized, 3C-cleaved (human) (UniProt Q14973)
Sequence (Q14973 whole entry): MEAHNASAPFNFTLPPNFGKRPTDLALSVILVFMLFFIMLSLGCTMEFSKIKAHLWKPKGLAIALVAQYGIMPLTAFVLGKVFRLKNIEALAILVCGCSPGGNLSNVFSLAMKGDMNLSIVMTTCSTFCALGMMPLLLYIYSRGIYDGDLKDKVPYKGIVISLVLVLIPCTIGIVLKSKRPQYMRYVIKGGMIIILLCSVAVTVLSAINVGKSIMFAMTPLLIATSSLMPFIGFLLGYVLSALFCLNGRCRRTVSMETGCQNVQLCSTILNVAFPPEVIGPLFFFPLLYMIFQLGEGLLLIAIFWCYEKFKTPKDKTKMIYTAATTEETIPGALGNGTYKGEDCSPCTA

## bulevirtide (BLV) (peptide)
  inhibition of 3H-taurocholate transport (1 uM TC, 8 min) into Flp-In T-Rex cells stably expressing NTCP at increasing concentrations of BLV; at high concentrations BLV fully abolished transport: 195 nM
